Measured values taken from publication PMC11203719, “Mts1 (S100A4) and Its Peptide Demonstrate Cytotoxic Activity in Complex with Tag7 (PGLYRP1) Peptide” (International Journal of Molecular Sciences, 2024).

Biological target: T1, Tag7 (PGLYRP1) protein, recombinant (UniProt O88593)
T1 sequence (O88593 1-182, species assumed, looked up): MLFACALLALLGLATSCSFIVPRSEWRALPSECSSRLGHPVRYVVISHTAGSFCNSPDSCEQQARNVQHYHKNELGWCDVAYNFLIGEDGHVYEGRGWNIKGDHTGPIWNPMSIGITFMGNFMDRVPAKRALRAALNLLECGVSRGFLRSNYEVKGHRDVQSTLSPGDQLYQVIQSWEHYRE
Assay: MST; Tag7 labelled with Alexa Fluor 488 (200 nM), preincubated 20 min in the dark at room temperature with 16 concentrations of M7; Monolith NT.115, 10% IR laser power

Kd: 2.96 nM
Binder: ELPSFLGKRTDEAAFQK [M7 peptide of Mts1 (S100A4)]
